Results as given in patent publication US10564159.

Legend:
[1] = biological target: chimeric hTSH/rLH-R receptor (RMc4), displayed on CHO-RMc4luc cells (human TSH receptor with a segment of rat LH receptor); experiment: cell-based or functional assay
[2] = biological target: human TSH receptor (wild type), displayed on CHO-Rluc cells (human) (UniProt P16473); experiment: cell-based or functional assay

Substance	Ratio of Signal/Negative, luciferase reporter, LH 455 mIU/ml on CHO-Mc4luc cells [1]	luciferase RLU, LH 455 mIU/ml on CHO-RMc4luc cells [1]	Ratio of Signal/Negative, luciferase reporter, LH 455 mIU/ml on CHO-Rluc cells [2]	luciferase RLU, LH 455 mIU/ml on CHO-Rluc cells [2]	Ratio of Signal/Negative, luciferase reporter, FSH 364 mIU/ml on CHO-Mc4luc cells [1]	luciferase RLU, FSH 364 mIU/ml on CHO-RMc4luc cells [1]	Ratio of Signal/Negative, luciferase reporter, FSH 364 mIU/ml on CHO-Rluc cells [2]	luciferase RLU, FSH 364 mIU/ml on CHO-Rluc cells [2]
human luteinizing hormone (from UniProt P01215 25-116; P01229 21-141) (ligand)	0.9	1560 RLU	0.8	835 RLU	–	–	–	–
human follicle stimulating hormone (from UniProt P01215 25-116; P01225 19-129) (ligand)	–	–	–	–	0.6	1020 RLU	0.7	728 RLU
